Results taken from patent US20250027939A1.

Target: S protein (UniProt P61823)
Assay: affinity column capture; EGFP fluorescence of column fractions as percent of input

UniProt P61823, sequence (P61823 47-150): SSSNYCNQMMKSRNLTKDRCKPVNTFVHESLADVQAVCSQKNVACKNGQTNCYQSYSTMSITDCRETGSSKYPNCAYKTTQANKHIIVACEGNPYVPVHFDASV

- percent of input target protein bound: 50%
Substance: S tag-bearing target protein (EGFP)
